Source: PMC10616211

How the values were obtained:
[1] = biological target: cytosolic fragment of MFN2 (modified, truncated human MFN2, residues 1–19 and 401–705 deleted) (human) (UniProt O95140); experiment: ELISA; MFN2 coated on plates (0.1 µM); HEK293T lysate with DIAPH1-eCFP added in TBS pH 7.2, overnight 4 °C; anti-GFP-HRP; one site total and nonspecific binding fit
[2] = biological target: cytosolic fragment of MFN2 (modified, truncated human MFN2, residues 1–19 and 401–705 deleted) (human) (UniProt O95140); experiment: ELISA; MFN2 coated on plates (0.1 µM); HEK293T lysate with DIAPH1-eCFP added in TBS pH 6.2, overnight 4 °C; anti-GFP-HRP; one site total and nonspecific binding fit
[3] = biological target: cytosolic fragment of MFN2 (modified, truncated human MFN2, residues 1–19 and 401–705 deleted) (human) (UniProt O95140); experiment: ELISA; as the pH 6.2 plate assay, with purified DID as competitor (1 µM in the results; wells treated with 2 µM DID in the methods)

Sequence of DIAPH1-eCFP (O60610 whole entry, the tested form may be a part): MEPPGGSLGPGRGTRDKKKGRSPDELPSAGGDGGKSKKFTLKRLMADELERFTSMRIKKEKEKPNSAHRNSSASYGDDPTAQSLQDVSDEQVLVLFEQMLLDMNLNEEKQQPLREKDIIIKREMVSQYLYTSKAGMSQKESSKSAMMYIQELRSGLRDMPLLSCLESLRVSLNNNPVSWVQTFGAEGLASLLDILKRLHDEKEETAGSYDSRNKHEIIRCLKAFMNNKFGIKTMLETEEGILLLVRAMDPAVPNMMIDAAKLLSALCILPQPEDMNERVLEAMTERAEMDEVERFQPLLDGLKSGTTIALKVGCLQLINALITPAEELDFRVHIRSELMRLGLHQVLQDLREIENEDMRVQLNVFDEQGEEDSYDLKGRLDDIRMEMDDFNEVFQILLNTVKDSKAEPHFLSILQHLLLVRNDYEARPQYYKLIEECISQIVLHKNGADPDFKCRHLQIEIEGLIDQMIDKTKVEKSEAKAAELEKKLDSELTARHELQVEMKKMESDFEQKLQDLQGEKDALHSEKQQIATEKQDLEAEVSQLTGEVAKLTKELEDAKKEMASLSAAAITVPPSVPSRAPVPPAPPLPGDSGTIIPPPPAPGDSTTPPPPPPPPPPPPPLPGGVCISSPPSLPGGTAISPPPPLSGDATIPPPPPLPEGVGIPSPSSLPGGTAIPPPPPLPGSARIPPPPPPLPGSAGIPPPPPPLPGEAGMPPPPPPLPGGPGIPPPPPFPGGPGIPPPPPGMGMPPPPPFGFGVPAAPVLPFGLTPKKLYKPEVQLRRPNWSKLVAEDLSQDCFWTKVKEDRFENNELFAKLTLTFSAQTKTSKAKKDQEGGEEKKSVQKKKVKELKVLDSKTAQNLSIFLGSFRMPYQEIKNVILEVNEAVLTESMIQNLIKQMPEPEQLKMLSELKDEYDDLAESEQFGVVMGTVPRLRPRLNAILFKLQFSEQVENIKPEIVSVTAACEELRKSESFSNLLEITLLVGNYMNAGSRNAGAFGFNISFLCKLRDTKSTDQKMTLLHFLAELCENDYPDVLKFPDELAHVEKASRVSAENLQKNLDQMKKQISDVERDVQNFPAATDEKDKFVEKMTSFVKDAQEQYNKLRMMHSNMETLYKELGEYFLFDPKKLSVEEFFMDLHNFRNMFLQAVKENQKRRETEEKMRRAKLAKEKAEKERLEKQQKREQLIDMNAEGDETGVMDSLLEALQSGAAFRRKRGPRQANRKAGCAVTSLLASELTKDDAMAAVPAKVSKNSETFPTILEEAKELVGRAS

Kd [1]: 700 pM | Kd [2]: 10 pM | KD in the presence of 1 µM DID [3]: 220 pM
Substance: DIAPH1-eCFP (from UniProt O60610 1-1272) (natural protein)
